Assay results: patent US20250250358A1
Each block holds one molecule with its values, some of them ahead of it.

Legend:
EGFR = EGFR (UniProt P00533); test: Fab KD, method not stated
PD-L1 on cells [1] = biological target: PD-L1 on cells (UniProt Q9NZQ7); test: flow cytometry, T24 R-WT cells incubated first with Atezolizumab Fab (50 nM); negative control [Cont.]
PD-L1 on cells [2] = biological target: PD-L1 on cells (UniProt Q9NZQ7); test: flow cytometry, T24 R-WT cells incubated first with Atezolizumab Fab (50 nM); Isotype Control-647 gives 480 [Cont.]

UniProt Q9NZQ7, sequence (Q9NZQ7 19-290 limits assumed): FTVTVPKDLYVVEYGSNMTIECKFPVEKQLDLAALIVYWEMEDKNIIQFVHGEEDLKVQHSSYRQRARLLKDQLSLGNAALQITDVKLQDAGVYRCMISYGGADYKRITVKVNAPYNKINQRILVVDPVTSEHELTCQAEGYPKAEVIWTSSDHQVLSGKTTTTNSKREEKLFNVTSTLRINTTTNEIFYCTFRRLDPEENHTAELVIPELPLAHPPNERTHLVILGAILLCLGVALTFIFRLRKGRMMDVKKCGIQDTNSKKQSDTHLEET

Kd (EGFR): 6.1 nM
Molecule: Necitumumab Fab

Median (APC) (PD-L1 on cells [1]): 480
Molecule: Isotype Control-647 (antibody)

Median (APC) (PD-L1 on cells [2]): 8120
Molecule: PD-L1 (D8T4X)-647 antibody

Kd (EGFR): 113 nM
B1: Matuzumab Fab (Fab, INN chains, looked up, V domains shown)
VH: QVQLVQSGAEVKKPGASVKVSCKASGYTFTSHWMHWVRQAPGQGLEWIGEFNPSNGRTNYNEKFKSKATMTVDTSTNTAYMELSSLRSEDTAVYYCASRDYDYDGRYFDYWGQGTLVTVSS
VL: DIQMTQSPSSLSASVGDRVTITCSASSSVTYMYWYQQKPGKAPKLLIYDTSNLASGVPSRFSGSGSGTDYTFTISSLQPEDIATYYCQQWSSHIFTFGQGTKVEIK
modifications: Fab
